In US20260275378A1 (4D MOLECULAR THERAPEUTICS, published 2026):

Target: T1, complement C3b (UniProt P01024 23-667; P01024 749-1663)
T1 construct: purified C3b (Complement Technology Inc. cat #A114) in the cleavage assay; also called purified C3b; C3b fragment
Experiment: C3b binding ELISA, C3b-coated plate, HEK293T supernatant
Description: C3b binding ELISA. The C3b binding ELISA is an in-house ELISA adapted from Nichols et. al. ([…] The assay tests if CpG-free miniCFH retains direct C3b binding ability by utilizing monoclonal anti-CFH blocking antibodies to prevent miniCFH binding to a C3b coated plate. The assay was carried out with both full-length recombinant CFH as proof of concept, and supernatants from 293T cells transfected with CpG-free miniCFH. As a control, we included conditions of mock incubation of CFH and transfected cell supernatant with no antibodies.

T1 sequence (P01024 23-667 limits assumed, chain 1 of 2): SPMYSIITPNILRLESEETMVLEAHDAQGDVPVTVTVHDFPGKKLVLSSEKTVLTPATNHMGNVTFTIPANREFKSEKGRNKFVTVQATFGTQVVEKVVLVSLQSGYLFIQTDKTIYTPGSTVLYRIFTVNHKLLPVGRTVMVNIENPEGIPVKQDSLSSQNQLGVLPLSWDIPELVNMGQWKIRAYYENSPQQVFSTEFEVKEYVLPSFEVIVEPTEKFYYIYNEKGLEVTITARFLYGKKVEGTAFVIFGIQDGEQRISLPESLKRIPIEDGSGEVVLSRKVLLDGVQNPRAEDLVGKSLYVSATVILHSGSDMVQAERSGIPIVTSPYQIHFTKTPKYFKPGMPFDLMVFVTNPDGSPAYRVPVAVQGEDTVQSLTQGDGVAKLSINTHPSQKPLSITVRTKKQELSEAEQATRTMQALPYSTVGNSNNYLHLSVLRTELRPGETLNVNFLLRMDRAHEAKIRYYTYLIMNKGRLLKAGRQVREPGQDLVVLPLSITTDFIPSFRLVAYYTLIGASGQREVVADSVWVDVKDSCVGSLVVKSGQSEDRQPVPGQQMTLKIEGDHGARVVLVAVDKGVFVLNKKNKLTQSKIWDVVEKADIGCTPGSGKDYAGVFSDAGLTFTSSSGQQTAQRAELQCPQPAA
T1 sequence (P01024 749-1663 limits assumed, chain 2 of 2): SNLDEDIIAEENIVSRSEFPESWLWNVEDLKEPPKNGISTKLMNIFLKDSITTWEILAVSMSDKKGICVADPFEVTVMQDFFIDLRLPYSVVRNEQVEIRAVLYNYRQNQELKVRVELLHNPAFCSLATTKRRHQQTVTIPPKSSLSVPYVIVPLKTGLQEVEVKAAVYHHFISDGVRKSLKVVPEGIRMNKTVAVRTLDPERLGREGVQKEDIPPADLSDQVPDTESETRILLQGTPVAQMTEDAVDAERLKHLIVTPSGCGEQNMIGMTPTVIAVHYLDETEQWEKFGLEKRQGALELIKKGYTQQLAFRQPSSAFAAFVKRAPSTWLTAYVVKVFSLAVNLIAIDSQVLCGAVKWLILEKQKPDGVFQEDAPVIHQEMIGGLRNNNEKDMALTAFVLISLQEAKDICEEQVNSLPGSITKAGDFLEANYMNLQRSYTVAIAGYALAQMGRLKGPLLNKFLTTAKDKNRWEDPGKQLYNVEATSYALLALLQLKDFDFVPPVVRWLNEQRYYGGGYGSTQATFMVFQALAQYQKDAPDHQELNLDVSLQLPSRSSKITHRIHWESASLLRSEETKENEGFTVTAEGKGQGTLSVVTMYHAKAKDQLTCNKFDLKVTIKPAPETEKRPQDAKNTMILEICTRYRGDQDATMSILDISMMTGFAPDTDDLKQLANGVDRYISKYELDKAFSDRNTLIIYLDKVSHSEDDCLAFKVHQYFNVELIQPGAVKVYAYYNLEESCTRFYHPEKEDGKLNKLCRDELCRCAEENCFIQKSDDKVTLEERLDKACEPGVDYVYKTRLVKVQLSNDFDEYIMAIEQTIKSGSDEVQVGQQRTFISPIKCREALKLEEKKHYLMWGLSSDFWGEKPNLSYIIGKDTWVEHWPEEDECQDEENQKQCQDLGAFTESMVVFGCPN

B1: miniCFH (shortened form of human complement factor H containing SCRs 1-4, 6-8 and 17-20) (other)
chain: EDCNELPPRRNTEILTGSWSDQTYPEGTQAIYKCRPGYRSLGNIIMVCRKGEWVALNPLRKCQKRPCGHPGDTPFGTFTLTGGNVFEYGVKAVYTCNEGYQLLGEINYRECDTDGWTNDIPICEVVKCLPVTAPENGKIVSSAMEPDREYHFGQAVRFVCNSGYKIEGDEEMHCSDDGFWSKEKPKCVEISCKSPDVINGSPISQKIIYKENERFQYKCNMGYEYSERGDAVCTESGWRPLPSCEEKSTLKPCDYPDIKHGGLYHENMRRPYFPVAVGKYYSYYCDEHFETPSGSYWDHIHCTQDGWSPAVPCLRKCYFPYLENGYNQNYGRKFVQGKSIDVACHPGYALPKAQTTVTCMENGWSPTPRCIRVKTCSKSSIDIENGFISESQYTYALKEKAKYQCKLGYVTADGETSGSITCGKDGWSAQPTCIKSIKTDCLSLPSFENAIPMGEKKDVYKAGEQVTYTCATYYKMDGASNVTCINSRWTGRPTCRDTSCVNPPTVQNAYIVSRQMSKYPSGERVRYQCRSPYEMFGDEEVMCLNGNWTEPPQCKDSTGKCGPPPPIDNGDITSFPLSVYAPASSVEYQCQNLYQLEGNKRITCRNGQWSEPPKCLHPCVISREIMENYNIALRWTAKQKLYSRTGESVEFVCKRGYRLSSRSHTLRTTCWDGKLEYPTCAKR
notes: Tested as unpurified serum-free supernatant of HEK293T cells transfected with the rAAV plasmid cassette; also called CpG-free miniCFH; short CFH
Does B1 bind?
Result: binds
